Data from paper PMC7653264 (2020).

Columns and labels:
[1] = biological target: T1, GST-PCNA (UniProt P12004 1-261); assay: ITC
[2] = biological target: T1, GST-PCNA; assay: ITC; remark: listed apart in the source

T1 sequence (P12004 whole entry): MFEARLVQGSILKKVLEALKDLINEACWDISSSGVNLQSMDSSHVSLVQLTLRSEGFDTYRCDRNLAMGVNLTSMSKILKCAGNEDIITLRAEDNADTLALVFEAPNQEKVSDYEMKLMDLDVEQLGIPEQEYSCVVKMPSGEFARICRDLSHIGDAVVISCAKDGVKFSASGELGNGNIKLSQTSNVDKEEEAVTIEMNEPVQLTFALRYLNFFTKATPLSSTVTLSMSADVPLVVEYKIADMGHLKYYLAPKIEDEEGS

B1: H3K79me0 peptide (amino acids H3 75-83) (peptide)
chain: AQDFKTDLR
- Ka [1]: 1.16e+06 M⁻¹
- Kd [2]: 1.33 µM
